The source of these data is patent US9201073B2, “Methods and compositions for enhancing proteasome activity” (President and Fellows of Harvard College, priority 2007, dated 2015).

In series [1] the target is T1, ubp6Δ proteasomes (Saccharomyces cerevisiae, UniProt P30656+P43588).
T1 construct: proteasomes purified from ubp6Δ mutants; TEV-ProA (TEV site + protein A), chromosomally integrated (C); made in house
As to the kind of experiment: In vitro ub-cyclin B deubiquitination/degradation assay with purified yeast proteasomes. The settings on record: ubp6Δ proteasomes 135 nM; recombinant Ubp6 or Usp14 species 540 nM, Ubl and Ubl-MBP 1.35 μM, preincubated 5 min; immunoblot. The series is classed as biochemical. The procedure: Proteasomes (135 nM) were incubated with ub-cyclin Bin the presence of 1 mM ATP and buffer (50 mM Tris [pH 7.51, 1 mM EDTA, 5 mM MgCl2) for the indicated times. Reactions were terminated by the addition of 5×SDS Laemmli loading buffer (Leggett, et al. (2002). Multiple associated proteins regulate proteasome structure and function. Mol. Cell. 10, 495-507) and boiled for 5 min. Where indicated, recombinant, purified Ubp6 or Usp14 species (540 nM) were preincubated with proteasomes for 5 min prior to the reaction. […] Unless otherwise noted, immunoblots were visualized with anti-cyclin B1 polyclonal antibodies. Polyclonal antibodies recognizing Ubp6, Rpn5, Rpn12, and ubiquitin were used as indicated. Ub-cyclin B was added in molar excess over proteasome, generally on the order of 25-fold, except for FIGS. 4C, 6A and 6B, where the substrate:enzyme ratio was increased by a factor of five.
In the experiments of FIGS. 1, 4 (except FIG. 4C), and 6C, time points were sampled after the preparation of a single reaction mixture. The zero time points therefore reflect a lag which represents the amount of time required to sample the first time point after having prepared the reaction mixture. […] In the experiments of FIGS. 2, 4C, and 6 (except 6C), each time point was carried out as an independent reaction. The zero time points were prepared in the presence of 5×LLB, and accordingly, no processing could occur before time zero.
Ubiquitination of cyclin B was carried out. Briefly, for each 30 μl reaction, Anaphase Promoting Complex (APC) was immunopurified from 600 μl of mitotic Xenopus egg extract with 12 μg of anti-Cdc27 antibodies (AF3.1, Santa Cruz Biotechnologies, Santa Cruz, Calif.) bound to 30 μl of Affiprep Protein A beads (Bio-Rad, Hercules, Calif.). Beads were washed three times with XB high salt (10 mM potassium HEPES pH 7.7, 500 mM KCl, 0.1 mM CaCl2, 1 mM MgCl2), two times with XB (same but with 100 mM KCl), and then three times into the reaction buffer (20 mM Tris pH 7.5, 100 mM KCl, 2.5 mM MgCl2, 2 mM ATP). Ubiquitination reactions contained immunoprecipitated APC on 30 μl of beads, and 30 μl of a mix containing recombinant MBP-human E1 at 200 μg/ml, histidine-tagged Ubc4 at 66 μg/ml, ubiquitin at 1.25 mg/ml, and 50 μg/ml of histidine-tagged cyclin B1/cdc2 complex expressed in baculovirus. Reactions were incubated for 90 minutes at 22° C. with agitation on a shaker at 1,000 RPM. Reaction supernatants were combined with the eluate from the wash of beads with 20 μl of reaction buffer. Reactions were either used fresh after preparation or frozen at −80° C. until use with purified proteasomes.
On the technique in general: A western blot detects proteins with antibodies after separation by electrophoresis.

The target of a further series is T2, 26S human proteasomes (Homo sapiens, UniProt O00487).
T2 construct: HTBH (C); made in house; complex purified from it
As to the kind of experiment: In vitro Ubn-cyclin B1 degradation assay with human proteasomes. The following applies: 4 nM human proteasomes, about 30 nM ubiquitinated cyclin B, Usp14 60 nM preincubated 5 min. The series is classed as biochemical. As to the method: A stable 293 cell line expressing hRpn11-HTBH was used. Human proteasomes were purified as previously described with some modifications (Wang X and Huang L (2007) Identifying dynamic interactors of protein complexes by quantitative mass spectrometry. Mol Cell Proteomics. 2008 January; 7(1):46-57. Epub 2007 Oct. 12.
Assays were performed in proteasome preparation buffer (50 mM Tris [pH 7.5], 5 mM MgCl2, and 5 mM ATP) at ambient temperature for the indicated times. The 26S human proteasomes (4 nM) were incubated with approximately 30 nM of Ub-conjugated cyclin B1 as substrates. Cyclin was ubiquitinated using purified APC ubiquitin ligase. Where indicated, a 15-fold molar access of recombinant Usp14 over proteasomes were preincubated prior to adding Ubn-cyclin B1.
In the study shown in FIG. 14, 4 nM of human proteasomes were incubated with approximately 30 nM of ubiquitinated cyclin B in buffer (50 mM Tris [pH 7.5], 5 mM MgCl2, and 5 mM ATP). Where indicated, 15-fold molar access of Usp14 over proteasome (60 nM) was preincubated for 5 min before initiating degradation reactions. Ubiquitinated cyclin B was added at time zero. SDS-sample buffer was added to stop the reaction at the indicated time. Usp14 CA is a variant of Usp14 with a single amino acid substitution that eliminates the active site nucleophile of the enzyme (a cysteine to alanine replacement). […]

The next series relates to ubiquitin ethyl ester. The following applies: cited from earlier work.
The target of another series is T3, proteasome (Saccharomyces cerevisiae, UniProt P43593).
T3 sequence (P43593 1-499): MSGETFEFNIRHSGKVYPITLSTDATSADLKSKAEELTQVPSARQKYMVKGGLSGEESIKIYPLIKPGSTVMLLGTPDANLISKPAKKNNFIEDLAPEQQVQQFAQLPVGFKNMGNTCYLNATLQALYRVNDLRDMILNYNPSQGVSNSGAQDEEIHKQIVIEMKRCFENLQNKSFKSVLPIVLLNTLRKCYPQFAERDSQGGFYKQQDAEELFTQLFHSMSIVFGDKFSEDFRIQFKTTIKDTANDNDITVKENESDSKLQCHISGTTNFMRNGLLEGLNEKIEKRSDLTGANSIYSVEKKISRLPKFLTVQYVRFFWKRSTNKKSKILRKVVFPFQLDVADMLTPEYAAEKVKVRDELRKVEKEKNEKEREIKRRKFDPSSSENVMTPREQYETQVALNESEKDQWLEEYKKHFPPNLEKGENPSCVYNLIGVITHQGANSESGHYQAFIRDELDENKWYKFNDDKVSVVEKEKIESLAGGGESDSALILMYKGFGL
The following applies: cited from earlier work.

The target of series [2] is T4, RP purified from a ubp6Δ mutant (Saccharomyces cerevisiae, UniProt P43588).
T4 construct: TEV-ProA (TEV site + protein A), chromosomally integrated (C); made in house
In words: Processing of ub-cyclin B by regulatory particle (RP). The series is classed as biochemical, yeast. The settings on record: RP 135 nM, four-fold molar excess of Ubp6 species. The procedure: FIGS. 6A and 6B depict the processing of ub-cyclin B by RP (ubp6Δ) in the presence or absence of purified Ubp6. Reactions were visualized by immunoblotting with anti-cyclin B antibody or anti-ubiquitin antibody, as indicated.
FIG. 12 is an illustration depicting the RP-mediated disassembly of Ub-cyclin B conjugates by Ubp6. Proteasome regulatory particle (135 nM) purified from a ubp6Δ strain was combined with a four-fold molar excess of Ubp6, Ubp6-ublΔ, or Ubp6-C118A, and Ub-Cyclin B, and incubated for the indicated times. Reactions were visualized by immunoblot with anti-ubiquitin antibody. *represents a non-ubiquitin immunoreactive band.
A previously described procedure for purification of the proteasome (Leggett, et al. (2002). Multiple associated proteins regulate proteasome structure and function. Mol. Cell. 10, 495-507) was modified by adding 1 mM ATP and 5 mM MgCl2 to all purification buffers, and by washing resins with 100 bed vol. of buffer containing 50 mM NaCl, as opposed to 50 bed vol. of buffer containing 100 mM NaCl. RP was purified in the presence of ATP and MgCl2 as described (Leggett et al., 2002).
Proteasomes (135 nM) were incubated with ub-cyclin Bin the presence of 1 mM ATP and buffer (50 mM Tris [pH 7.51, 1 mM EDTA, 5 mM MgCl2) for the indicated times. […]

The target of series [3] is T1, ubp6Δ proteasomes. In words: Quantitation of proteasome inhibition by quantitative mass spectrometry of cyclin B. It counts as biochemical, yeast. The following applies: 20-minute incubation. The procedure:
A standard substrate degradation assay was carried out, and analyzed in parallel by SDS-PAGE followed by Coomassie blue staining and immunoblot with anti-cyclin B antibody. Immunoblots were used to identify and excise the cyclin B-containing regions of the Coomassie-stained gel, and the lanes were analyzed by mass spectrometry.
To quantify the extent of proteasome inhibition by Ubp6, a method of quantitative mass spectrometry was utilized. After a 20-minute incubation, approximately half of the total cyclin B was degraded by ubp6Δ proteasomes (FIG. 4C).

A further series concerns the target T5, Ub-cyclin B (Homo sapiens, UniProt P14635).
T5 construct: histidine tag; made in house; host or cells: cyclin B1/cdc2: baculovirus expression; GST-Ubp6: pGEX-4T-1 (bacterial)
In words: Ub-cyclin B binding assay (GST pull down). The following applies: GST resin pull down, immunoblot.

T5 sequence (P14635 whole entry, other chains not shown): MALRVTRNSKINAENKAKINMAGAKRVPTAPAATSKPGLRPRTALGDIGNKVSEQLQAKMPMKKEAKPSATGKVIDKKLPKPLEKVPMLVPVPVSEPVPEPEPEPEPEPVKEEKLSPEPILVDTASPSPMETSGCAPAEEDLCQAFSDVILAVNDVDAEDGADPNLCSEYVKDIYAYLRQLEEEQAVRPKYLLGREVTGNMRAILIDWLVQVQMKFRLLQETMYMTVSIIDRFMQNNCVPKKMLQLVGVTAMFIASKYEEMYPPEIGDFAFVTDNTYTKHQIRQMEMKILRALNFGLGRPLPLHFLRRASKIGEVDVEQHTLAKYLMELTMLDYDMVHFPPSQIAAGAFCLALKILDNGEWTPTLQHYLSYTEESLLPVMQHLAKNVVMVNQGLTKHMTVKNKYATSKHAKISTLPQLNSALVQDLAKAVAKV
T5 sequence (P06493 whole entry partner, other chains not shown): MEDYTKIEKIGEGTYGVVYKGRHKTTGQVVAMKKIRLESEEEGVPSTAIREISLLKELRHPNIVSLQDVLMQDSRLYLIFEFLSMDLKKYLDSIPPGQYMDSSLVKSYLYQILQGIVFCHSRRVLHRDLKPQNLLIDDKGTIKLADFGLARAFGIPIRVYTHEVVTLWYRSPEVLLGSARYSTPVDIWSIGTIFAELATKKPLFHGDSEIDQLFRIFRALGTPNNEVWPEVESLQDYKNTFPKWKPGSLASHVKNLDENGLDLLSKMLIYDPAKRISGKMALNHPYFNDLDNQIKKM

Regarding “Usp14: human homolog of Ubp6, purified recombinant deubiquitinating enzyme”, the “inhibition of cyclin B degradation” value in the series with ubp6Δ proteasomes [1] is “largely recapitulated the effects of Ubp6”. For the same molecule, the “suppression of cyclin B degradation by human proteasomes” value in the series with 26S human proteasomes is recorded as “suppression of cyclin B degradation”.

B1: Ubp6: yeast proteasomal deubiquitinating enzyme, endogenous proteasome inhibitor; purified recombinant protein (protein)
chain: MSGETFEFNIRHSGKVYPITLSTDATSADLKSKAEELTQVPSARQKYMVKGGLSGEESIKIYPLIKPGSTVMLLGTPDANLISKPAKKNNFIEDLAPEQQVQQFAQLPVGFKNMGNTCYLNATLQALYRVNDLRDMILNYNPSQGVSNSGAQDEEIHKQIVIEMKRCFENLQNKSFKSVLPIVLLNTLRKCYPQFAERDSQGGFYKQQDAEELFTQLFHSMSIVFGDKFSEDFRIQFKTTIKDTANDNDITVKENESDSKLQCHISGTTNFMRNGLLEGLNEKIEKRSDLTGANSIYSVEKKISRLPKFLTVQYVRFFWKRSTNKKSKILRKVVFPFQLDVADMLTPEYAAEKVKVRDELRKVEKEKNEKEREIKRRKFDPSSSENVMTPREQYETQVALNESEKDQWLEEYKKHFPPNLEKGENPSCVYNLIGVITHQGANSESGHYQAFIRDELDENKWYKFNDDKVSVVEKEKIESLAGGGESDSALILMYKGFGL
In the case of B1, the “inhibition of cyclin B degradation” value with ubp6Δ proteasomes [1] is listed as “marked inhibition of cyclin B degradation”. The “KM of Ubp6 for ubiquitin ethyl ester” value in the series with ubiquitin ethyl ester is “so high as to be unmeasurable”. Also, in the series with proteasome, the “activation of Ubp6's catalytic activity on binding to the proteasome” value is given as “over 300 fold”. The “processing of ub-cyclin B conjugates by RP” value in series [2] was “chain shortening”. Besides, the “inhibition of degradation (cyclin B)” value in the series with ubp6Δ proteasomes [3] is given as “approximately 70%”.

B2: GST-Ubp6: GST fusion of Ubp6 on resin (protein)
chain: MSGETFEFNIRHSGKVYPITLSTDATSADLKSKAEELTQVPSARQKYMVKGGLSGEESIKIYPLIKPGSTVMLLGTPDANLISKPAKKNNFIEDLAPEQQVQQFAQLPVGFKNMGNTCYLNATLQALYRVNDLRDMILNYNPSQGVSNSGAQDEEIHKQIVIEMKRCFENLQNKSFKSVLPIVLLNTLRKCYPQFAERDSQGGFYKQQDAEELFTQLFHSMSIVFGDKFSEDFRIQFKTTIKDTANDNDITVKENESDSKLQCHISGTTNFMRNGLLEGLNEKIEKRSDLTGANSIYSVEKKISRLPKFLTVQYVRFFWKRSTNKKSKILRKVVFPFQLDVADMLTPEYAAEKVKVRDELRKVEKEKNEKEREIKRRKFDPSSSENVMTPREQYETQVALNESEKDQWLEEYKKHFPPNLEKGENPSCVYNLIGVITHQGANSESGHYQAFIRDELDENKWYKFNDDKVSVVEKEKIESLAGGGESDSALILMYKGFGL
modifications: left off: a dimerising Fc or GST
notes: GST fusion of Ubp6 on resin
On to B2, for which the “binding of Ub-cyclin B conjugates” value in the series with Ub-cyclin B was “No detectable binding”.
